{"source": "paper PMC3439350", "target": "yAsf1*^532 (full-length yeast Asf1, residues 1 to 279, labeled at position -1 with Alexa Fluor 532) (S. cerevisiae) (UniProt P32447)", "assay": "other fluorescence titration; fluorescence quenching: unlabeled histones titrated into 1 nM yAsf1*^532; 20°C; 150 mM KCl, 2 mM MgCl2, 10 mM Tris-HCl pH 7.5, 1% glycerol, 0.05% Brij-35, 0.5 mM TCEP; ligand-depleted binding model", "data": [{"substance": "H3/H4^∆94 (Xenopus laevis, H3 C110A and H4 T71C Δ94-102) (from UniProt P84233 1-136; P62799 1-94) (complex)", "values": [{"measurement": "Kd", "value": 0.4, "unit": "nM"}]}]}
